According to article PMC3762362, “Three-color single molecule imaging shows WASP detachment from Arp2/3 complex triggers actin filament branch formation” (eLife, 2013):
Changes are numbered by the printed parent chain. Names and notes keep the numbering of the source.

B1: Cy3-diVCA-A* (Δ486–488) (domain or fragment)
chain: CGGSGGSGGSGGSSGRDALLDQIRQGIQLKSVADGQESTPPTPAPTSGIVGALMEVMQKRSKAIHSSEDEDDEEDFEDDDEWED
modifications: Cy3 bis-maleimide (BMCy3) crosslinks the single Cys of the N-terminal extension of the two chains
notes: extension appended at the N-terminus; its Cys reacts with the Cy3 bis-maleimide; human N-WASP VCA, residues 432-505, three-residue deletion in the A-region; Covalent dimer; same design as m1; also called A* mutant; source: E. coli BL21(DE3) T1R, purified (DEAE, Glutathione Sepharose, TEV cleavage, SOURCE 15Q, Superdex 200); not shown: GST, N-terminal, cleaved
B2: Cy3-diVCA wild-type (N-WASP VCA covalently dimerized with a Cy3 bis-maleimide) (domain or fragment)
chain: CGGSGGSGGSGGSSGRDALLDQIRQGIQLKSVADGQESTPPTPAPTSGIVGALMEVMQKRSKAIHSSDEDEDEDDEEDFEDDDEWED
modifications: Cy3 bis-maleimide (BMCy3) crosslinks the single Cys of the N-terminal extension of the two chains
notes: extension appended at the N-terminus; its Cys reacts with the Cy3 bis-maleimide; human N-WASP VCA, residues 432-505 (second WH2 motif (V) through the C-terminus); Covalent dimer; also called diVCA w.t; wild-type diVCA; source: E. coli BL21(DE3) T1R, purified (DEAE, Glutathione Sepharose, TEV cleavage, SOURCE 15Q, Superdex 200); not shown: GST, N-terminal, cleaved
B3: Cy3-diVCA-C* (I467A) (domain or fragment)
chain: B2 chain with I49A
modifications: Cy3 bis-maleimide (BMCy3) crosslinks the single Cys of the N-terminal extension of the two chains
notes: extension appended at the N-terminus; its Cys reacts with the Cy3 bis-maleimide; human N-WASP VCA, residues 432-505, mutated in the C-region; Covalent dimer; same design as m1; also called C* mutant; source: E. coli BL21(DE3) T1R, purified (DEAE, Glutathione Sepharose, TEV cleavage, SOURCE 15Q, Superdex 200); not shown: GST, N-terminal, cleaved
B4: Cy3-diVCA-V* (D435S/A436D) (domain or fragment)
chain: B2 chain with D17S, A18D
modifications: Cy3 bis-maleimide (BMCy3) crosslinks the single Cys of the N-terminal extension of the two chains
notes: extension appended at the N-terminus; its Cys reacts with the Cy3 bis-maleimide; human N-WASP VCA, residues 432-505, mutated in the V-region; Covalent dimer; same design as m1; also called V* mutant; source: E. coli BL21(DE3) T1R, purified (DEAE, Glutathione Sepharose, TEV cleavage, SOURCE 15Q, Superdex 200); not shown: GST, N-terminal, cleaved

The binders below were run against Rabbit muscle actin (monomeric) (rabbit, UniProt P68135 1-377) (assay: fluorescence polarisation; fluorescence anisotropy competition: 20 nM VCA-AF488 with rabbit muscle actin (150 nM in the legend, 200 nM in the methods) and increasing Cy3-diVCA construct; fit to a competition binding isotherm; 10 mM imidazole pH 7.0, 50 mM KCl, 1 mM EGTA, 1 mM MgCl2, 0.5 mM DTT, 0.1 mM ATP; room temperature). Conditions: both partners purified.

Row | Binder | Kd
1 | B1 | 250 nM
2 | B2 | 340 nM
3 | B3 | 260 nM
4 | B4 | 660 nM
